The source of these data is patent US12134610B2, “Somatostatin subtype-2 receptor (SST2R) targeted therapeutics and uses thereof” (priority 2022, dated 2024).

Data set [1] deals with T1, human somatostatin receptor subtype 2 (Homo sapiens, UniProt P30874).
T1 construct: expressed in transfected cells
Put plainly: Functional cAMP assay for SSTR2 agonists (HTRF) in CHO-K1 cells. It counts as cell-based. Conditions: CHO-K1 cells stably expressing human SST2, 20 min; read-out: hSST2 cAMP Avg EC50. The method in brief: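 CHO-K1 cells stably expressing receptor, plated 4 days before assay, treated 20 min at 37° C. with compound (typically 0-10,000 nM final) plus IBMX and 1.6 μM NKH477 to raise cAMP. HTRF read, 665/620 nm ratio; cAMP from standard curve, EC50 fitted.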
In general terms: Changes in cAMP serve as a functional read-out for many G protein-coupled receptors.

Data set [2] concerns NCI-H524 (ATCC) human small cell lung cancer cells. It counts as cell-based. The gist of the method:
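NCI-H524 cells (5,000/well) were exposed 24 h after plating to SMDC for 2 h, 11-point two-fold series from 1 uM. After washout they grew a further 70 h. Proliferation was read by CellTiter-Glo luminescence, % inhibition taken vs untreated control, and IC50 fitted by four-parameter nonlinear regression.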

Data set [3] in a line: H524 tumor biodistribution model: tumor and plasma levels of SMDC and MMAE by LC/MS-MS. The class given is in vivo, female Athymic nude mice. Conditions: H524 tumor bearing nude mice. As for the experimental part: In this example, 5 million H524 (Small Cell Lung Cancer) cells in 1:1 Matrigel: cold Media (RPMI1640) were injected into the subcutaneous (SQ) flank of female Athymic nude mice. Tumor volumes and body weights were measured twice a week. The tumors were allowed to grow until they reached 250-500 mm^3 in size before animals were randomized into groups (n=3/time point). Animals were injected intravenously with a SMDC of the present invention at a single dose of 500 nmol/kg. […] BLQ: Below Limit of Quantitation.

The target in data set [4] is T2, SST2 (Homo sapiens, UniProt P30874).
T2 construct: host or cells: PathHunter CHO-K1 SST2 cells
Put plainly: PathHunter CHO-K1 SST2 internalization assay. Conditions: PathHunter CHO-K1 SST2, 90 min; read-out: Internalization EC50. The class given is cell-based. The gist of the method: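 PathHunter CHO-K1 SST2 cells, seeded and grown 48 h, were exposed to 11-point 1:3 dilutions of SMDC (top final 10 uM) for 90 min at 37 C, 5% CO2. Beta-Glo luminescence was read after 60 min at room temperature. Background-corrected duplicate means were fitted by four-parameter nonlinear regression to give IC50.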

Setting [5] is: MMAE level 1 h after 500 nmol/kg IV of the conjugate.
Where [6] appears, read: MMAE level 4 h after 500 nmol/kg IV of the conjugate.
The mark [7] stands for this setting: MMAE level 24 h after 500 nmol/kg IV of the conjugate.
The mark [8] stands for this setting: MMAE level 72 h after 500 nmol/kg IV of the conjugate.
Where [9] appears, read: female, Athymic nude, mouse, plasma, 4 h after 500 nmol/kg IV, read-out: Conjugate Plasma.
Setting [10] is: female, Athymic nude, mouse, plasma, 24 h after 500 nmol/kg IV, read-out: Conjugate Plasma.
The mark [11] stands for this setting: female, Athymic nude, mouse, 4 h after 500 nmol/kg IV, read-out: Conjugate Tumor.
The mark [12] stands for this setting: MMAE level 168 h after 500 nmol/kg IV of the conjugate.

Where two headings read alike, the source gives them in different places.

T2 sequence (P30874 whole entry): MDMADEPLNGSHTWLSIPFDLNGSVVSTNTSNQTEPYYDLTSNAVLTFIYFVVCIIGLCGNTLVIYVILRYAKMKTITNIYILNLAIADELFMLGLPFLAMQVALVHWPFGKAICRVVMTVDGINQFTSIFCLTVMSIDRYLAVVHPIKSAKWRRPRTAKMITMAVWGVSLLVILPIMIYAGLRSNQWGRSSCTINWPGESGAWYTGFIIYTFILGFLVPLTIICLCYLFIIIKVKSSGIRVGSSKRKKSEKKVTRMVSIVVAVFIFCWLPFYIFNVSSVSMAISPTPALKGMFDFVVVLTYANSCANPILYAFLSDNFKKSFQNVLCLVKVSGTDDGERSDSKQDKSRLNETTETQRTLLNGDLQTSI
T1 sequence (P30874 whole entry): as above

Usually EC50 stands for the concentration at which the effect is half-maximal. Regarding `CC[C@H](C)[C@@H]([C@@H](CC(=O)N1CCC[C@H]1[C@H](OC)[C@@H](C)C(=O)N[C@H](C)[C@@H](O)c1ccccc1)OC)N(C)C(=O)[C@@H](NC(=O)[C@H](C(C)C)N(C)C(=O)OCc1ccc(NC(=O)[C@H](CCCNC(N)=O)NC(=O)[C@@H](NC(=O)[C@H](CCC(=O)O)NC(=O)CCOCCC(=O)NCCNc2ncc(-c3cc(C)cc(F)c3)c(N3CCC(N)CC3)c2-c2nc3ccc(Cl)cc3[nH]2)C(C)C)cc1C(=O)NCCN)C(C)C` [Compound 49], the EC50 turned out to be 0.14 nM in data set [1], 17.3 nM in data set [2] (2 h) and 5.5 nM in data set [4]. Further, the “Conjugate Tumor (nM)” value in data set [3] (24 h after 500 nmol/kg IV) and in data set [3] (72 h after 500 nmol/kg IV) was “BLQ” in each case. In addition, the “Conjugate Plasma (nM)” value in data set [3] (72 h after 500 nmol/kg IV) is given as “BLQ”. The “MMAE Plasma” value in data set [3] (setting [5]) was 9.2 nM; in data set [3] (setting [6]) it was 1.36 nM. In addition, the “MMAE Tumor” value in data set [3] (setting [5]) worked out at 38 nM; in data set [3] (setting [6]) it was 65.7 nM; in data set [3] (setting [7]) it was 83.5 nM; in data set [3] (setting [8]) it was 62.7 nM. Further, the “MMAE Plasma (nM)” value in data set [3] (setting [7]) and in data set [3] (setting [8]) was “BLQ” each time. Further, the level at time molar at 1 h in data set [3] (female, Athymic nude, mouse, plasma, 1 h after 500 nmol/kg IV, read-out: Conjugate Plasma) worked out at 354 nM; in data set [3] (female, Athymic nude, mouse, 1 h after 500 nmol/kg IV, read-out: Conjugate Tumor), 88.1 nM. Also, the level at time molar at 4 h in data set [3] (setting [9]) was found to be 41.6 nM; in data set [3] (setting [11]), 46.5 nM. In addition, the level at time molar at 24 h in data set [3] (setting [10]) worked out at 0.783 nM.

`CC[C@H](C)[C@@H]([C@@H](CC(=O)N1CCC[C@H]1[C@H](OC)[C@@H](C)C(=O)N[C@H](C)[C@@H](O)c1ccccc1)OC)N(C)C(=O)[C@@H](NC(=O)[C@H](C(C)C)N(C)C(=O)OCc1ccc(NC(=O)[C@H](CCCNC(N)=O)NC(=O)[C@@H](NC(=O)CCOCCC(=O)NCCNc2ncc(-c3cc(C)cc(F)c3)c(N3CCC(N)CC3)c2-c2nc3ccc(Cl)cc3[nH]2)C(C)C)c(O[C@@H]2O[C@H](C(=O)O)[C@@H](O)[C@H](O)[C@H]2O)c1)C(C)C` [Compound 61]: the results for the EC50 in data set [1], in data set [2] (2 h) and in data set [4] were 0.11 nM, 33.2 nM and 12.7 nM, respectively. Moreover, the “Conjugate Plasma (nM)” value in data set [3] (72 h after 500 nmol/kg IV) and in data set [3] (168 h after 500 nmol/kg IV) was “BLQ” throughout. For the same compound, the “Conjugate Tumor (nM)” value in data set [3] (72 h after 500 nmol/kg IV) and in data set [3] (168 h after 500 nmol/kg IV) was “BLQ” in each case. In addition, the “MMAE Plasma” value in data set [3] (setting [6]) came to 0.754 nM. For the same compound, the “MMAE Tumor” value is given as 75.0 nM in data set [3] (setting [6]), 320 nM in data set [3] (setting [7]), 267 nM in data set [3] (setting [8]) and 97.8 nM in data set [3] (setting [12]). Moreover, the “MMAE Plasma (nM)” value in data set [3] (setting [8]) and in data set [3] (setting [12]) was “BLQ” in each case. In addition, the level at time molar at 4 h in data set [3] (setting [9]) is 1100 nM; in data set [3] (setting [11]) it was 181 nM. Besides, the level at time molar at 24 h in data set [3] (setting [10]) was determined as 56.5 nM; in data set [3] (female, Athymic nude, mouse, 24 h after 500 nmol/kg IV, read-out: Conjugate Tumor), 37 nM.

Turning to `CC[C@H](C)[C@@H]([C@@H](CC(=O)N1CCC[C@H]1[C@H](OC)[C@@H](C)C(=O)N[C@H](C)[C@@H](O)c1ccccc1)OC)N(C)C(=O)[C@@H](NC(=O)[C@H](C(C)C)N(C)C(=O)OCc1ccc(NC(=O)[C@H](C)NC(=O)[C@@H](NC(=O)CCOCCC(=O)NCCNc2ncc(-c3cc(C)cc(F)c3)c(N3CCC(N)CC3)c2-c2nc3ccc(Cl)cc3[nH]2)C(C)C)c(O[C@@H]2O[C@H](C(=O)O)[C@@H](O)[C@H](O)[C@H]2O)c1)C(C)C` [Compound 68], in data set [2] (2 h treatment, washout, additional 70 h, read-out: H524 EC50), the concentration giving a half-maximal response (EC50) worked out at 11.2 nM. Further, the level at time molar at 24 h in data set [3] (1 h after 500 nmol/kg IV, read-out: Conjugate Plasma) is reported as 1388 nM; in data set [3] (1 h after 500 nmol/kg IV, read-out: Conjugate Tumor), 212 nM; in data set [3] (4 h after 500 nmol/kg IV, read-out: Conjugate Plasma), 446 nM; in data set [3] (4 h after 500 nmol/kg IV, read-out: Conjugate Tumor) it was 91.3 nM; in data set [3] (24 h after 500 nmol/kg IV, read-out: Conjugate Plasma), 36.9 nM; in data set [3] (24 h after 500 nmol/kg IV, read-out: Conjugate Tumor), 15.5 nM. Besides, the level at time molar at 24 h in data set [3] (72 h after 500 nmol/kg IV, read-out: Conjugate Plasma) came to 0.68 nM. The “Conjugate Tumor (nM)” value in data set [3] (72 h after 500 nmol/kg IV) was “BLQ”. The results for the “MMAE Plasma” value in data set [3] (setting [5]), in data set [3] (setting [6]) and in data set [3] (setting [7]) were 8.82 nM, 1.94 nM and 0.416 nM, respectively. The “MMAE Tumor” value in data set [3] (setting [5]) was 17.5 nM; in data set [3] (setting [6]) it was 197 nM; in data set [3] (setting [7]) it was 299 nM; in data set [3] (setting [8]), 231 nM. The “MMAE Plasma (nM)” value in data set [3] (setting [8]) was “BLQ”.

With `CC[C@H](C)[C@@H]([C@@H](CC(=O)N1CCC[C@H]1[C@H](OC)[C@@H](C)C(=O)N[C@H](C)[C@@H](O)c1ccccc1)OC)N(C)C(=O)[C@@H](NC(=O)[C@H](C(C)C)N(C)C(=O)OCc1ccc(NC(=O)[C@H](C)NC(=O)[C@@H](NC(=O)CCOCCNCCC(=O)NCCNc2ncc(-c3cc(C)cc(F)c3)c(N3CCC(N)CC3)c2-c2nc3ccc(Cl)cc3[nH]2)C(C)C)c(O[C@@H]2O[C@H](C(=O)O)[C@@H](O)[C@H](O)[C@H]2O)c1)C(C)C` [Compound 156], the EC50 in data set [1] was 0.24 nM; in data set [2] (2 h) it was 76 nM; in data set [4] it was 25 nM.

`CC[C@H](C)[C@@H]([C@@H](CC(=O)N1CCC[C@H]1[C@H](OC)[C@@H](C)C(=O)N[C@H](C)[C@@H](O)c1ccccc1)OC)N(C)C(=O)[C@@H](NC(=O)[C@H](C(C)C)N(C)C(=O)OCc1ccc(NC(=O)[C@H](C)NC(=O)[C@@H](NC(=O)[C@H](CS(=O)(=O)O)NC(=O)CCOCCOCCOCCOCCC(=O)NCCNc2ncc(-c3cc(C)cc(F)c3)c(N3CCC(N)CC3)c2-c2nc3ccc(Cl)cc3[nH]2)C(C)C)cc1C(=O)NCCN)C(C)C` [Compound 158]: the EC50 in data set [1] turned out to be 0.24 nM; in data set [2] (2 h) it was 3 nM; in data set [4], 12 nM.

As for `CC[C@H](C)[C@@H]([C@@H](CC(=O)N1CCC[C@H]1[C@H](OC)[C@@H](C)C(=O)N[C@H](C)[C@@H](O)c1ccccc1)OC)N(C)C(=O)[C@@H](NC(=O)[C@H](C(C)C)N(C)C(=O)OCc1ccc(NC(=O)[C@H](CCCNC(N)=O)NC(=O)[C@@H](NC(=O)[C@H](CS(N)(=O)=O)NC(=O)CCOCCC(=O)NCCNc2ncc(-c3cc(C)cc(F)c3)c(N3CCC(N)CC3)c2-c2nc3ccc(Cl)cc3[nH]2)C(C)C)cc1C(=O)NCCN)C(C)C` [Compound 159], the EC50 in data set [1] was found to be 0.3 nM; in data set [2] (2 h), 2.6 nM; in data set [4] it was 10 nM.
